Data reported in the supplement of paper PMC10724198.
± gives the standard deviation of the averaged measurements.

Tests used:
Assay in all cases: protein stability index of tFT-peptide fusion (C-terminal peptide) (PSI (0-1 scale)); higher = more stable (slower turnover)
[1] = system: Saccharomyces cerevisiae; settings: temperature: 30 C
Protocol: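 MPS profiling in S. cerevisiae of the yeast C-terminome library: the last 12 aa of each annotated ORF are fused to the C-terminus of a sfGFP-mCherry timer, after a GGGS linker. Cells are FACS-sorted into 8 mCherry/sfGFP bins and deep-sequenced. PSI runs from 0 (unstable) to 1 (stable); wild type and das1Δ backgrounds, two technical replicates each.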

[2] = system: Saccharomyces cerevisiae
Protocol: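 MPS profiling in S. cerevisiae of the tFT-X12 degron library: putative degron peptides plus stable controls, 12 aa, fused to the C-terminus of a sfGFP-mCherry timer. Cells are FACS-sorted into 8 mCherry/sfGFP bins and deep-sequenced. PSI runs from 0 (unstable) to 1 (stable). Backgrounds are wild type, das1Δ and doa10Δ at 30 °C, and wild type, das1Δ, cdc34-1 and cdc53-1 at 37 °C; 2-3 technical replicates each.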

[3] = system: Saccharomyces cerevisiae; settings: genetic background: wild type; temperature: 30 C
[4] = genetic background: das1 deletion
[5] = genetic background: cdc34-1, temperature: 37 C
[6] = genetic background: cdc53-1, temperature: 37 C
[7] = genetic background: das1 deletion, temperature: 30 C
[8] = genetic background: das1 deletion, temperature: 37 C
[9] = genetic background: doa10 deletion, temperature: 30 C
[10] = genetic background: wild type, temperature: 30 C
[11] = genetic background: wild type, temperature: 37 C

CMESNPPVFMAI [YNL296W C-terminal 12 aa]
protein stability index [1, 4]: 0.709 ± 0.035 | protein stability index ([1]; genetic background: wild type): 0.713 ± 0.021

CRGIAEVNMKYT [PPS1 C-terminal 12 aa]
protein stability index [1, 4]: 0.6869 ± 0.0036 | protein stability index ([1]; genetic background: wild type): 0.6326 ± 0.0059

CTFIYFLYFSLF [YBL070C C-terminal 12 aa]
protein stability index [1, 4]: 0.325 ± 0.0072 | protein stability index ([1]; genetic background: wild type): 0.288 ± 0.03

CWENVRKTRAAK [PSO2 C-terminal 12 aa]
protein stability index [1, 4]: 0.692 ± 0.0083 | protein stability index ([1]; genetic background: wild type): 0.6966 ± 0.005

CYTEEEWSKIVV [BOL2 C-terminal 12 aa]
protein stability index [1, 4]: 0.7072 ± 0.003 | protein stability index ([1]; genetic background: wild type): 0.717 ± 0.019

DACIKRWNVVLE [AIP1 C-terminal 12 aa]
protein stability index [1, 4]: 0.684 ± 0.023 | protein stability index ([1]; genetic background: wild type): 0.71 ± 0.049

DDDDDDDGQITA [YHR131C C-terminal 12 aa]
protein stability index [1, 4]: 0.677 ± 0.027 | protein stability index ([1]; genetic background: wild type): 0.6663 ± 0.004

DDEIDSEEDENA [SDD3 C-terminal 12 aa]
protein stability index [1, 4]: 0.69 ± 0.035 | protein stability index ([1]; genetic background: wild type): 0.653 ± 0.018

DDFKKAFREKRK [ALY1 C-terminal 12 aa]
protein stability index [1, 4]: 0.729 ± 0.013 | protein stability index ([1]; genetic background: wild type): 0.676 ± 0.044

DEDDDEDVTDQE [DLS1 C-terminal 12 aa]
protein stability index [1, 4]: 0.6663 ± 0.004 | protein stability index ([1]; genetic background: wild type): 0.677 ± 0.013

DEEEEIEPEVKA [SBA1 C-terminal 12 aa]
protein stability index [1, 4]: 0.678 ± 0.017 | protein stability index ([1]; genetic background: wild type): 0.685 ± 0.027

DEQPTLSQSKTK [DAD1 C-terminal 12 aa]
protein stability index [1, 4]: 0.708 ± 0.012 | protein stability index ([1]; genetic background: wild type): 0.714 ± 0.076

DFIKNPNDYFKQ [BEM2 C-terminal 12 aa]
protein stability index [1, 4]: 0.73319 ± 0.00064 | protein stability index ([1]; genetic background: wild type): 0.729 ± 0.1

DFSASSSVEEVK [MFT1 C-terminal 12 aa]
protein stability index [1, 4]: 0.7088 ± 0.004 | protein stability index ([1]; genetic background: wild type): 0.662 ± 0.011

DGTTSKDSEKKK [COA4 C-terminal 12 aa]
protein stability index [1, 4]: 0.708 ± 0.011 | protein stability index ([1]; genetic background: wild type): 0.648 ± 0.011

DHDVSLEEVINI [MCY1 C-terminal 12 aa]
protein stability index [1, 4]: 0.722 ± 0.034 | protein stability index ([1]; genetic background: wild type): 0.706 ± 0.02

YPFSLVLGVFAF
protein stability index [2, 5]: 0.367 ± 0.02 | protein stability index [2, 6]: 0.389 ± 0.022 | protein stability index [2, 7]: 0.298 ± 0.028 | protein stability index [2, 8]: 0.456 ± 0.0094 | protein stability index [2, 9]: 0.285 ± 0.01 | protein stability index [2, 10]: 0.325 ± 0.0062 | protein stability index [2, 11]: 0.4104 ± 0.0034 | protein stability index [3]: 0.405 ± 0.033

YPPLFLLMRGVL
protein stability index [2, 5]: 0.594 ± 0.021 | protein stability index [2, 6]: 0.694 ± 0.013 | protein stability index [2, 7]: 0.605 ± 0.018 | protein stability index [2, 8]: 0.712 ± 0.021 | protein stability index [2, 9]: 0.157 ± 0.011 | protein stability index [2, 10]: 0.175 ± 0.034 | protein stability index [2, 11]: 0.357 ± 0.016 | protein stability index [3]: 0.258 ± 0.075

YRHYGVARKKLA
protein stability index [2, 5]: 0.592 ± 0.075 | protein stability index [2, 6]: 0.7016 ± 0.0023 | protein stability index [2, 7]: 0.634 ± 0.034 | protein stability index [2, 8]: 0.713 ± 0.028 | protein stability index [2, 9]: 0.081 ± 0.009 | protein stability index [2, 10]: 0.134 ± 0.01 | protein stability index [2, 11]: 0.127 ± 0.016 | protein stability index [3]: 0.152 ± 0.0056

YTQKFTFYGLPA
protein stability index [2, 5]: 0.701 ± 0.035 | protein stability index [2, 6]: 0.721 ± 0.013 | protein stability index [2, 7]: 0.639 ± 0.038 | protein stability index [2, 8]: 0.727 ± 0.013 | protein stability index [2, 9]: 0.618 ± 0.033 | protein stability index [2, 10]: 0.616 ± 0.016 | protein stability index [2, 11]: 0.708 ± 0.02 | protein stability index [3]: 0.027 ± 0.023

YVRHDKLILSFC
protein stability index [2, 5]: 0.492 ± 0.026 | protein stability index [2, 6]: 0.529 ± 0.041 | protein stability index [2, 7]: 0.427 ± 0.021 | protein stability index [2, 8]: 0.5562 ± 0.0027 | protein stability index [2, 9]: 0.3915 ± 0.002 | protein stability index [2, 10]: 0.414 ± 0.019 | protein stability index [2, 11]: 0.54 ± 0.011 | protein stability index [3]: 0.489 ± 0.013

YVSLPFVVWWFC
protein stability index [2, 5]: 0.443 ± 0.029 | protein stability index [2, 6]: 0.533 ± 0.016 | protein stability index [2, 7]: 0.414 ± 0.026 | protein stability index [2, 8]: 0.591 ± 0.0081 | protein stability index [2, 9]: 0.1839 ± 0.0011 | protein stability index [2, 10]: 0.198 ± 0.014 | protein stability index [2, 11]: 0.375 ± 0.0063 | protein stability index [3]: 0.309 ± 0.033

YWFWLLIGSFSC
protein stability index [2, 5]: 0.487 ± 0.053 | protein stability index [2, 6]: 0.51 ± 0.013 | protein stability index [2, 7]: 0.382 ± 0.026 | protein stability index [2, 8]: 0.526 ± 0.011 | protein stability index [2, 9]: 0.36 ± 0.019 | protein stability index [2, 10]: 0.382 ± 0.024 | protein stability index [2, 11]: 0.504 ± 0.012 | protein stability index [3]: 0.4576 ± 0.0029

YWGFHPCCAFGY
protein stability index [2, 5]: 0.722 ± 0.048 | protein stability index [2, 6]: 0.784 ± 0.012 | protein stability index [2, 7]: 0.636 ± 0.013 | protein stability index [2, 8]: 0.77 ± 0.023 | protein stability index [2, 9]: 0.654 ± 0.035 | protein stability index [2, 10]: 0.659 ± 0.019 | protein stability index [2, 11]: 0.745 ± 0.051 | protein stability index [3]: 0.711 ± 0.0091

YYQVSQKIQRKQ
protein stability index [2, 5]: 0.681 ± 0.012 | protein stability index [2, 6]: 0.708 ± 0.021 | protein stability index [2, 7]: 0.639 ± 0.023 | protein stability index [2, 8]: 0.726 ± 0.042 | protein stability index [2, 9]: 0.323 ± 0.0077 | protein stability index [2, 10]: 0.371 ± 0.018 | protein stability index [2, 11]: 0.584 ± 0.014 | protein stability index [3]: 0.435 ± 0.065
